{"source": "patent US20070274915", "proteins": {"B1": {"name": "E6AP (purified, full-length) (protein)", "chain": "MKRAAAKHLIERYYHQLTEGCGNEACTNEFCASCPTFLRMDNNAAAIKALELYKINAKLCDPHPSKKGASSAYLENSKGAPNNSCSEIKMNKKGARIDFKDVTYLTEEKVYEILELCREREDYSPLIRVIGRVFSSAEALVQSFRKVKQHTKEELKSLQAKDEDKDEDEKEKAACSAAAMEEDSEASSSRIGDSSQGDNNLQKLGPDDVSVDIDAIRRVYTRLLSNEKIETAFLNALVYLSPNVECDLTYHNVYSRDPNYLNLFIIVMENRNLHSPEYLEMALPLFCKAMSKLPLAAQGKLIRLWSKYNADQIRRMMETFQQLITYKVISNEFNSRNLVNDDDAIVAASKCLKMVYYANVVGGEVDTNHNEEDDEEPIPESSELTLQELLGEERRNKKGPRVDPLETELGVKTLDCRKPLIPFEEFINEPLNEVLEMDKDYTFFKVETENKFSFMTCPFILNAVTKNLGLYYDNRIRMYSERRITVLYSLVQGQQLNPYLRLKVRRDHIIDDALVRLEMIAMENPADLKKQLYVEFEGEQGVDEGGVSKEFFQLVVEEIFNPDIGMFTYDESTKLFWFNPSSFETEGQFTLIGIVLGLAIYNNCILDVHFPMVVYRKLMGKKGTFRDLGDSHPVLYQSLKDLLEYEGNVEDDMMITFQISQTDLFGNPMMYDLKENGDKIPITNENRKEFVNLYSDYILNKSVEKQFKAFRRGFHMVTNESPLKYLFRPEEIELLICGSRNLDFQALEETTEYDGGYTRDSVLIREFWEIVHSFTDEQKRLFLQFTTGTDRAPVGGLGKLKMIIAKNGPDTERLPTSHTCFNVLLLPEYSSKEKLKERLLKAITYAKGFGML"}, "B2": {"name": "myc-tagged Nedd4 isoform (accession number KIAA0093) (protein)", "chain": "MATCAVEVFGLLEDEENSRIVRVRVIAGIGLAKKDILGASDPYVRVTLYDPMNGVLTSVQTKTIKKSLNPKWNEEILFRVHPQQHRLLFEVFDENRLTRDDFLGQVDVPLYPLPTENPRLERPYTFKDFVLHPRSHKSRVKGYLRLKMTYLPKTSGSEDDNAEQAEELEPGWVVLDQPDAACHLQQQQEPSPLPPGWEERQDILGRTYYVNHESRRTQWKRPTPQDNLTDAENGNIQLQAQRAFTTRRQISEETESVDNRESSENWEIIREDEATMYSNQAFPSPPPSSNLDVPTHLAEELNARLTIFGNSAVSQPASSSNHSSRRGSLQAYTFEEQPTLPVLLPTSSGLPPGWEEKQDERGRSYYVDHNSRTTTWTKPTVQATVETSQLTSSQSSAGPQSQASTSDSGQQVTQPSEIEQGFLPKGWEVRHAPNGRPFFIDHNTKTTTWEDPRLKIPAHLRGKTSLDTSNDLGPLPPGWEERTHTDGRIFYINHNIKRTQWEDPRLENVAITGPAVPYSRDYKRKYEFFRRKLKKQNDIPNKFEMKLRRATVLEDSYRRIMGVKRADFLKARLWIEFDGEKGLDYGGVAREWFFLISKEMFNPYYGLFEYSATDNYTLQINPNSGLCNEDHLSYFKFIGRVAGMAVYHGKLLDGFFIRPFYKMMLHKPITLHDMESVDSEYYNSLRWILENDPTELDLRFIIDEELFGQTHQHELKNGGSEIVVTNKNKKEYIYLVIQWRFVNRIQKQMAAFKEGFFELIPQDLIKIFDENELELLMCGLGDVDVNDWREHTKYKNGYSANHQVIQWFWKAVLMMDSEKRIRLLQFVTGTSRVPMNGFAELYGSNGPQSFTVEQWGTPEKLPRAHTCFNRLDLPPYESFEELWDKLQMAIENTQGFDGVD"}, "B3": {"name": "catalytically inactive Nedd4 protein, bearing an alanine substitution at the active cysteine of the HECT domain (protein)", "chain": "MATCAVEVFGLLEDEENSRIVRVRVIAGIGLAKKDILGASDPYVRVTLYDPMNGVLTSVQTKTIKKSLNPKWNEEILFRVHPQQHRLLFEVFDENRLTRDDFLGQVDVPLYPLPTENPRLERPYTFKDFVLHPRSHKSRVKGYLRLKMTYLPKTSGSEDDNAEQAEELEPGWVVLDQPDAACHLQQQQEPSPLPPGWEERQDILGRTYYVNHESRRTQWKRPTPQDNLTDAENGNIQLQAQRAFTTRRQISEETESVDNRESSENWEIIREDEATMYSNQAFPSPPPSSNLDVPTHLAEELNARLTIFGNSAVSQPASSSNHSSRRGSLQAYTFEEQPTLPVLLPTSSGLPPGWEEKQDERGRSYYVDHNSRTTTWTKPTVQATVETSQLTSSQSSAGPQSQASTSDSGQQVTQPSEIEQGFLPKGWEVRHAPNGRPFFIDHNTKTTTWEDPRLKIPAHLRGKTSLDTSNDLGPLPPGWEERTHTDGRIFYINHNIKRTQWEDPRLENVAITGPAVPYSRDYKRKYEFFRRKLKKQNDIPNKFEMKLRRATVLEDSYRRIMGVKRADFLKARLWIEFDGEKGLDYGGVAREWFFLISKEMFNPYYGLFEYSATDNYTLQINPNSGLCNEDHLSYFKFIGRVAGMAVYHGKLLDGFFIRPFYKMMLHKPITLHDMESVDSEYYNSLRWILENDPTELDLRFIIDEELFGQTHQHELKNGGSEIVVTNKNKKEYIYLVIQWRFVNRIQKQMAAFKEGFFELIPQDLIKIFDENELELLMCGLGDVDVNDWREHTKYKNGYSANHQVIQWFWKAVLMMDSEKRIRLLQFVTGTSRVPMNGFAELYGSNGPQSFTVEQWGTPEKLPRAHTCFNRLDLPPYESFEELWDKLQMAIENTQGFDGVD"}}, "key": {"[1]": {"molecular_target": "T1, bacterially-expressed HHR23A substrate, P54725", "T1 chain": "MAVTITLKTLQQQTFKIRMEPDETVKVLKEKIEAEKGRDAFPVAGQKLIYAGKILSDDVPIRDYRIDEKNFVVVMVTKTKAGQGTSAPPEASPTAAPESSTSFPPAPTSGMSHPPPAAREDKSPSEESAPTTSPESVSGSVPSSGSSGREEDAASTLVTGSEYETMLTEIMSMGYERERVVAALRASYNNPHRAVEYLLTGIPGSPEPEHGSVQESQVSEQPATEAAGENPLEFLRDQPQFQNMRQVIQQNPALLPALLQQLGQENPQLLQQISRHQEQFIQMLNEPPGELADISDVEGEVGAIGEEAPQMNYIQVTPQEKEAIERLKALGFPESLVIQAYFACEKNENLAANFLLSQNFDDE"}, "[2]": {"molecular_target": "AU-tagged PLC-γ1", "sequence (P19174 2-1290)": "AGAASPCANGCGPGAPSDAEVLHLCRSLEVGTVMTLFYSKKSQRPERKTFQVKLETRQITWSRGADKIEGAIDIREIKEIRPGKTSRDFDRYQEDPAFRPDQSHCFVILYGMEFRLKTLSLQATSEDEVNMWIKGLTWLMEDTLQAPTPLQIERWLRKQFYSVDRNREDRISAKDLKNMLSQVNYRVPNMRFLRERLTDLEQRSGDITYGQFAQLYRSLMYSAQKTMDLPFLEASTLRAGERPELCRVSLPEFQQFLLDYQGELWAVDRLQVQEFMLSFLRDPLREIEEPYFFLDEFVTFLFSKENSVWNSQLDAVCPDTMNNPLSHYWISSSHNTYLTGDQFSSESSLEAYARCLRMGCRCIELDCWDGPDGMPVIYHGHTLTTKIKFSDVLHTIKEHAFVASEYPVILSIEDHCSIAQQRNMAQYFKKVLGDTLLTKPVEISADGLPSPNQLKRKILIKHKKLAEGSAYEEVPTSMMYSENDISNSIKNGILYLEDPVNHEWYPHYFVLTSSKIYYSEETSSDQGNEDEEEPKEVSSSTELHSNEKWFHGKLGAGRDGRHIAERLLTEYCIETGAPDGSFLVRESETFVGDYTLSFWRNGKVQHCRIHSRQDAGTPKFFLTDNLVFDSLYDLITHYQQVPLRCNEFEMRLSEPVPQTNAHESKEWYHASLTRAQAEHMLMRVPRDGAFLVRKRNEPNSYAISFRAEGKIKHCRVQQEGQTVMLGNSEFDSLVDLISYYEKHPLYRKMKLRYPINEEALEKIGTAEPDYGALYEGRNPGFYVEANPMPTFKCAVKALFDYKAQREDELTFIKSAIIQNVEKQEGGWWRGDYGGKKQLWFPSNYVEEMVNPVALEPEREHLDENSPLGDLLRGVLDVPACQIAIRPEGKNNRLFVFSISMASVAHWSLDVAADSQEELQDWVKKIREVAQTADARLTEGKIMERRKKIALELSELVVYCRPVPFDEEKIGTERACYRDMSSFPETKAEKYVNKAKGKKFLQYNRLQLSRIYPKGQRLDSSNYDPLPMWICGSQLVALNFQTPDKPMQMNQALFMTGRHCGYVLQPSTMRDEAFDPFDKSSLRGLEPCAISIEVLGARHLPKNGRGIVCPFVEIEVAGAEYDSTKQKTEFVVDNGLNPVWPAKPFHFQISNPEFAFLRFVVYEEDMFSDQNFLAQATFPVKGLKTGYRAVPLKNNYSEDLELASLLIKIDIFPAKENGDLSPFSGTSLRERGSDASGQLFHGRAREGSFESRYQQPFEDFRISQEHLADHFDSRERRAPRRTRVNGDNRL"}}}
{"protein": "B1", "values": [{"measurement": "trans-ubiquitination of HHR23A (in vitro reaction with E1, E2 UbcH7, ubiquitin and ATP; SDS-PAGE, anti-HHR23A immunoblot)", "setting": "[1]", "value": "time-dependent increase in the amount of ubiquitin-conjugated HHR23A substrate"}]}
{"protein": "B2", "values": [{"measurement": "ionomycin-dependent degradation of PLC-γ1 (HEK 293 transfection, immunoblot)", "setting": "[2]", "value": "Itch and Nedd4 both facilitated the ionomycin-dependent degradation of PLC-γ1"}]}
{"protein": "B3", "values": [{"measurement": "ionomycin-dependent degradation of PLC-γ1 (HEK 293 transfection, immunoblot)", "setting": "[2]", "value": "did not promote this decrease (FIG. 17D; lanes 5, 6), but prevented the small but significant decrease in PLC-γ1 levels observed in ionomycin-treated cells"}]}
